In patent US12139520B2 (priority 2020, dated 2024):
Numbered stars: 1 amine (or outer) side, 2 acyl side, 3 side chain; on linkers, the order of the positions; unused ones are H or OH. Bridge positions count the residues as written; N and C are the ends. Square brackets hold non-standard residues; d marks the D form. Side chains are listed from the residue outwards. Ends that are not written are not given here. * marks the point of attachment. C20 diacid = O=C(O)CCCCCCCCCCCCCCCCCCC(=O)*; γGlu = O=C(O)[C@H](CCC(=O)[*:2])N[*:1]; Hyp = O=C(O)[C@@H]1C[C@@H](O)CN1; AEEA = NCCOCCOCC(=O)O

T1: hAMY3R (human, UniProt P30988)
T1 sequence 1: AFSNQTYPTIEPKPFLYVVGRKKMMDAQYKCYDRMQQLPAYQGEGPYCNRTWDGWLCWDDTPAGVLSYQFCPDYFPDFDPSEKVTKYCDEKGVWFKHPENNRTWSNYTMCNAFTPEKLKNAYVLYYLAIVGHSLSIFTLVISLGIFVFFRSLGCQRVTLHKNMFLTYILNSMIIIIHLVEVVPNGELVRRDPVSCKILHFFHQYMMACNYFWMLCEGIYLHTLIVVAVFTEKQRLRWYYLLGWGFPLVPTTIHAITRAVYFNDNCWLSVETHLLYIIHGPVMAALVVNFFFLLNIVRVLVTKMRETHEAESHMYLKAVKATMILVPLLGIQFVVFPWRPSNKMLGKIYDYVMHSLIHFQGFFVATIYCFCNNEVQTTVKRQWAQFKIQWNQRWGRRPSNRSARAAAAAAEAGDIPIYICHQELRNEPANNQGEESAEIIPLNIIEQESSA
T1 sequence 2: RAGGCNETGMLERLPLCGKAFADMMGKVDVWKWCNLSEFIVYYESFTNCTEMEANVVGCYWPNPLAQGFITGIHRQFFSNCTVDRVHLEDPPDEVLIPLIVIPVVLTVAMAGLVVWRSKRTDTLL


Molecular target: hAM1R (human, UniProt Q16602)
Experiment: cell-based or functional assay

hAM1R EC50 (cAMP) [nM]	Binder
13.6	GCRFGTCTVQRLAHFLYQFTDKDKDNVAPRTNIGPQGY [SEQ ID NO: 364]
1.21	GCRFGTCTVQRLAHFLYQFTDKDKDNVAPRTKIGPQGY [SEQ ID NO: 365]
0.563	GCRFGTCTVQRLAHQIYQFTDKDKDNVAPRTKIGPNGY [SEQ ID NO: 367]
2.48	GCRFGTCTVQRLAHFLYQFTDKDKDNVAPRTKVGPQGY [SEQ ID NO: 369]
1580	GCRFGTCTVQWLAHQIYQFTDKDKDNVAPRTKISPNG[Hyp]-NH2 (disulfide 2-7 (inferred); ends not checked) [SEQ ID NO: 337]
1120	GCRTGTCTVQWLAHQIYQFTDKDKDNVAPRSNIGPNG[Hyp]-NH2 (disulfide 2-7 (inferred); ends not checked) [SEQ ID NO: 352]
> 5000	GCRTGTCTVQWLAHQIYQFTDKDKDNVAPRTKIGPNG[Hyp]-NH2 (disulfide 2-7 (inferred); ends not checked) [SEQ ID NO: 339]
671	GCRFGTCTVQWLAHQIYQFTDKDKDNVAPRTNVSPQGY [SEQ ID NO: 340]
0.997	GCRFGTCTVQRLAHQIYQFTDKDKDNVAPRTKVGPQGY [SEQ ID NO: 368]
113	GCRFGTCTVQWLAHQIYQFTDKDKDNVAPRSNVSPQGY [SEQ ID NO: 345]
12.1	GCRFGTCTVQRLAHQIYQFTDKDKDNVAPRTNISPNGY [SEQ ID NO: 366]
> 5000	GCRTGTCTVQWLAHQIYQFTDKDKDNVAPRTKVGPQGY [SEQ ID NO: 354]
18.1	GCRFGTCTVQRLAHQIYQFTDKDKDNVAPRTNVGPQGY [SEQ ID NO: 362]
> 5000	GCRTGTCTVQWLAHQIYQFTDKDKDNVAPRSNVGPQGY [SEQ ID NO: 346]
> 5000	GCRTGTCTVQWLAHQIYQFTDKDKDNVAPRSKVGPQGY [SEQ ID NO: 344]
> 5000	GCRTGTCTVQWLAHQIYQFTDKDKDNVAPRTNIGPQGY [SEQ ID NO: 356]
> 5000	GCRTGTCTVQWLAHQIYQFTDKDKDNVAPRTNIGPNGY [SEQ ID NO: 348]
2920	GCRFGTCTVQWLAHQIYQFTDKDKDNVAPRSKVGPQG[Hyp]-NH2 (disulfide 2-7 (inferred); ends not checked) [SEQ ID NO: 353]
> 5000	GCRTGTCTVQWLAHQIYQFTDKDKDNVAPRTNVSPNG[Hyp]-NH2 (disulfide 2-7 (inferred); ends not checked) [SEQ ID NO: 358]

hAM1R EC50 (cAMP) [nM]	Binder
117	GCRFGTCTVQWLAHQIYQFTDKDKDNVAPRTKIGPNG[Hyp]-NH2 (disulfide 2-7 (inferred); ends not checked) [SEQ ID NO: 343]
> 5000	{C20 diacid-γGlu}-KCNTATCTVDRLAHQIYQFTDKDKDNVAPPTNVGSNG[Hyp]-NH2 (disulfide 2-7 (inferred); ends not checked) [SEQ ID NO: 4]
> 5000	{C20 diacid-γGlu}-KCNTATCTVARLAHQIYQFTDKDKDNVAPPTNVGSNG[Hyp]-NH2 (disulfide 2-7 (inferred); ends not checked) [SEQ ID NO: 37]
> 5000	GCRTGTCTVQWLAHQIYQFTDKDKDNVAPRSKIGPNG[Hyp]-NH2 (disulfide 2-7 (inferred); ends not checked) [SEQ ID NO: 355]
> 5000	{C20 diacid-γGlu}-KCNTATCTVQRLAHQIQQFTDKDKDNVAPPTNVGSNG[Hyp]-NH2 (disulfide 2-7 (inferred); ends not checked) [SEQ ID NO: 35]
> 5000	GCRTGTCTVQWLAHQIYQFTDKDKDNVAPRSNIGPQG[Hyp]-NH2 (disulfide 2-7 (inferred); ends not checked) [SEQ ID NO: 359]
> 5000	GCRIGTCTVQWLAHQIYQFTDKFKDNVAPRSKISPQT[Hyp]-NH2 (disulfide 2-7 (inferred); ends not checked) [SEQ ID NO: 351]
> 5000	GCRTGTCTVQWLAHQIYQFTDKDKDNVAPRSNVSPNG[Hyp]-NH2 (disulfide 2-7 (inferred); ends not checked) [SEQ ID NO: 360]
> 5000	GCRTGTCTVQWLAHQIYQFTDKDKDNVAPRSKVGPNG[Hyp]-NH2 (disulfide 2-7 (inferred); ends not checked) [SEQ ID NO: 347]
1180	GCRFGTCTVQWLAHQIYQFTDKDKDNVAPRTKISPQG[Hyp]-NH2 (disulfide 2-7 (inferred); ends not checked) [SEQ ID NO: 350]
> 5000	GCRTGTCTVQWLAHQIYQFTDKDKDNVAPRTKVGPQG[Hyp]-NH2 (disulfide 2-7 (inferred); ends not checked) [SEQ ID NO: 349]
> 5000	KCK([AEEA-AEEA-γGlu-C20 diacid])TATCTVQRLAEQIYQFTDKDKDNVAPPTNVGSNG[Hyp]-NH2 (disulfide 2-7 (inferred); ends not checked) [SEQ ID NO: 36]
> 5000	GCRTGTCTVQWLAHQIYQFTDKDKDNVAPRSNVGPQG[Hyp]-NH2 (disulfide 2-7 (inferred); ends not checked) [SEQ ID NO: 342]
> 5000	KCNTATCTVQWLAHQIYQATDKDKDNVAPPTNVGSNG[Hyp]-NH2 (disulfide 2-7 (inferred); ends not checked) [SEQ ID NO: 338]
> 5000	GCRTGTCTVQWLAHQIYQFTDKDKDNVAPRTNIGPQG[Hyp]-NH2 (disulfide 2-7 (inferred); ends not checked) [SEQ ID NO: 341]
> 5000	GCRTGTCTVQWLAHQIYQFTDKDKDNVAPRTKIGPQG[Hyp]-NH2 (disulfide 2-7 (inferred); ends not checked) [SEQ ID NO: 357]
0.913	KCNFATCTVQRLAHQIYQFTDKDKDNVAPRTKVGSNGY [SEQ ID NO: 361]
1.77	KCNFATCATQRLANFLVQFTDKDKDNVAPRSKIGPQGY [SEQ ID NO: 363]

Molecular target: T1, hAMY3R
Experiment: cell-based or functional assay

hAMY3R EC50 (cAMP) [nM]	Binder
0.01	GCRFGTCTVQRLAHFLYQFTDKDKDNVAPRTNIGPQGY [SEQ ID NO: 364]
0.012	GCRFGTCTVQRLAHFLYQFTDKDKDNVAPRTKIGPQGY [SEQ ID NO: 365]
0.014	GCRFGTCTVQRLAHQIYQFTDKDKDNVAPRTKIGPNGY [SEQ ID NO: 367]
0.017	GCRFGTCTVQRLAHFLYQFTDKDKDNVAPRTKVGPQGY [SEQ ID NO: 369]
0.019	GCRFGTCTVQWLAHQIYQFTDKDKDNVAPRTKISPNG[Hyp]-NH2 (disulfide 2-7 (inferred); ends not checked) [SEQ ID NO: 337]
0.04	GCRTGTCTVQWLAHQIYQFTDKDKDNVAPRSNIGPNG[Hyp]-NH2 (disulfide 2-7 (inferred); ends not checked) [SEQ ID NO: 352]
0.047	GCRTGTCTVQWLAHQIYQFTDKDKDNVAPRTKIGPNG[Hyp]-NH2 (disulfide 2-7 (inferred); ends not checked) [SEQ ID NO: 339]
0.022	GCRFGTCTVQWLAHQIYQFTDKDKDNVAPRTNVSPQGY [SEQ ID NO: 340]
0.015	GCRFGTCTVQRLAHQIYQFTDKDKDNVAPRTKVGPQGY [SEQ ID NO: 368]
0.051	GCRFGTCTVQWLAHQIYQFTDKDKDNVAPRSNVSPQGY [SEQ ID NO: 345]
0.013	GCRFGTCTVQRLAHQIYQFTDKDKDNVAPRTNISPNGY [SEQ ID NO: 366]
0.091	GCRTGTCTVQWLAHQIYQFTDKDKDNVAPRTKVGPQGY [SEQ ID NO: 354]
0.007	GCRFGTCTVQRLAHQIYQFTDKDKDNVAPRTNVGPQGY [SEQ ID NO: 362]
0.085	GCRTGTCTVQWLAHQIYQFTDKDKDNVAPRSNVGPQGY [SEQ ID NO: 346]
0.121	GCRTGTCTVQWLAHQIYQFTDKDKDNVAPRSKVGPQGY [SEQ ID NO: 344]
0.079	GCRTGTCTVQWLAHQIYQFTDKDKDNVAPRTNIGPQGY [SEQ ID NO: 356]
0.041	GCRTGTCTVQWLAHQIYQFTDKDKDNVAPRTNIGPNGY [SEQ ID NO: 348]
0.027	GCRFGTCTVQWLAHQIYQFTDKDKDNVAPRSKVGPQG[Hyp]-NH2 (disulfide 2-7 (inferred); ends not checked) [SEQ ID NO: 353]
0.071	GCRTGTCTVQWLAHQIYQFTDKDKDNVAPRTNVSPNG[Hyp]-NH2 (disulfide 2-7 (inferred); ends not checked) [SEQ ID NO: 358]

hAMY3R EC50 (cAMP) [nM]	Binder
0.017	GCRFGTCTVQWLAHQIYQFTDKDKDNVAPRTKIGPNG[Hyp]-NH2 (disulfide 2-7 (inferred); ends not checked) [SEQ ID NO: 343]
0.006	{C20 diacid-γGlu}-KCNTATCTVDRLAHQIYQFTDKDKDNVAPPTNVGSNG[Hyp]-NH2 (disulfide 2-7 (inferred); ends not checked) [SEQ ID NO: 4]
0.01	{C20 diacid-γGlu}-KCNTATCTVARLAHQIYQFTDKDKDNVAPPTNVGSNG[Hyp]-NH2 (disulfide 2-7 (inferred); ends not checked) [SEQ ID NO: 37]
0.14	GCRTGTCTVQWLAHQIYQFTDKDKDNVAPRSKIGPNG[Hyp]-NH2 (disulfide 2-7 (inferred); ends not checked) [SEQ ID NO: 355]
0.009	{C20 diacid-γGlu}-KCNTATCTVQRLAHQIQQFTDKDKDNVAPPTNVGSNG[Hyp]-NH2 (disulfide 2-7 (inferred); ends not checked) [SEQ ID NO: 35]
0.145	GCRTGTCTVQWLAHQIYQFTDKDKDNVAPRSNIGPQG[Hyp]-NH2 (disulfide 2-7 (inferred); ends not checked) [SEQ ID NO: 359]
0.943	GCRIGTCTVQWLAHQIYQFTDKFKDNVAPRSKISPQT[Hyp]-NH2 (disulfide 2-7 (inferred); ends not checked) [SEQ ID NO: 351]
0.165	GCRTGTCTVQWLAHQIYQFTDKDKDNVAPRSNVSPNG[Hyp]-NH2 (disulfide 2-7 (inferred); ends not checked) [SEQ ID NO: 360]
0.068	GCRTGTCTVQWLAHQIYQFTDKDKDNVAPRSKVGPNG[Hyp]-NH2 (disulfide 2-7 (inferred); ends not checked) [SEQ ID NO: 347]
0.044	GCRFGTCTVQWLAHQIYQFTDKDKDNVAPRTKISPQG[Hyp]-NH2 (disulfide 2-7 (inferred); ends not checked) [SEQ ID NO: 350]
0.046	GCRTGTCTVQWLAHQIYQFTDKDKDNVAPRTKVGPQG[Hyp]-NH2 (disulfide 2-7 (inferred); ends not checked) [SEQ ID NO: 349]
0.009	KCK([AEEA-AEEA-γGlu-C20 diacid])TATCTVQRLAEQIYQFTDKDKDNVAPPTNVGSNG[Hyp]-NH2 (disulfide 2-7 (inferred); ends not checked) [SEQ ID NO: 36]
0.054	GCRTGTCTVQWLAHQIYQFTDKDKDNVAPRSNVGPQG[Hyp]-NH2 (disulfide 2-7 (inferred); ends not checked) [SEQ ID NO: 342]
0.089	KCNTATCTVQWLAHQIYQATDKDKDNVAPPTNVGSNG[Hyp]-NH2 (disulfide 2-7 (inferred); ends not checked) [SEQ ID NO: 338]
0.029	GCRTGTCTVQWLAHQIYQFTDKDKDNVAPRTNIGPQG[Hyp]-NH2 (disulfide 2-7 (inferred); ends not checked) [SEQ ID NO: 341]
0.115	GCRTGTCTVQWLAHQIYQFTDKDKDNVAPRTKIGPQG[Hyp]-NH2 (disulfide 2-7 (inferred); ends not checked) [SEQ ID NO: 357]
0.006	KCNFATCTVQRLAHQIYQFTDKDKDNVAPRTKVGSNGY [SEQ ID NO: 361]
0.01	KCNFATCATQRLANFLVQFTDKDKDNVAPRSKIGPQGY [SEQ ID NO: 363]
